One molecule from US20050153287A1, “Nr3b nmda receptor subunit compositions and related methods” (priority 2001, published 2005) can be followed below.

Holding throughout (assay type): cell-based
Experiment [1] deals with NMDA receptor (NR1 and NR2A). Kind of experiment: Glutamate-induced whole-cell current in transfected HEK293 cells. How it is done: (§1) To express the receptors in HEK293 cells, the cells were transfected with 1 μg of each plasmid unless otherwise stated (Shi et al., 1999). The NR1 and NR2A were tagged with green fluorescent protein (GFP) on the extracellular domain to facilitate the identification of transfected cells. […] NMDA receptor mediated current was recorded in the presence of 10 μM glycine. AMPA receptor current was recorded as described (Shi et al., 1999). Pipette solutions contained (in mM) Cs-methanesulfonate 110; CsCl 30; NaCl 4; HEPES 10; EGTA 5; CaCl2 0.5 adjusted to pH 7.3 with CsOH. 1 mM glutamate (for NMDA receptor) or kainate (for AMPA receptor) was pressure (1.0 PSI) applied through a puffer pipette positioned ˜10 μm to the cells. A program based on Igor (WaveMetrics, Inc., Lake Oswego, Oreg.) was used to acquire data on a Macintosh computer.

Experiment [2] concerns AMPA receptor (GluR2-(R586Q)). Kind of experiment: Kainate-induced AMPA receptor current in transfected HEK293 cells. Conditions: coexpression of NR3B with GluR2-(R586Q) in HEK293 cells. How it is done:
as §1

In experiment [3] the test system is NR1 and NR2A tagged with GFP. Kind of experiment: Expression levels of GFP-tagged NR1 and NR2A by fluorescence intensity. Conditions: presence or absence of NR3B; NR1 and NR2A individually expressed with NR3B. How it is done:
as §1
The electrophysiological properties of NR3B were tested by expressing NR3B in HEK293 cells. A conventional NMDA receptor channel is formed by a heteromeric combination of NR1, which is a key subunit for functionality, and at least one NR2 subunit, which is modulatory (Dingledine et al., 1999). […] NR1 and NR2A tagged with GFP were individually expressed with NR3B and their expression levels were measured by the fluorescence intensity. The statistical significance in this figure was assessed by Kolmogorov-Smirnov test. […]

B1: NR3B: mouse NR3B NMDA receptor subunit polypeptide (SEQ ID NO: 2), expressed from cDNA plasmid in HEK293 cells (protein, listed as Mus musculus)
chain: MECVQTLWLSLALALARGSWVVRGHPQPCGVPTRAGASVRLAALLPRAPAARARVLAALATPSPRLPHNLSLELVAVASPTRDPASLARGLCQVLAPPGVVASITFPEARPELRLLQFLAAATETPVLSVLRREVRAPLGAPTPFHLQLDWASPLETILDVLVSLVRAHAWEDIALVLCRVRDPSGLVTLWTSRASQAPKFVLDLSQLDSGNDSLRATLALLGTLEGGGTPVSAAVLLGCSTAHAHEVLEAAPPGPQWLLGTPLPAEALPKTGLPPGVLVLGETGQPSLEAAVHDMVELVARALSSMALMHPERALLPAAVNCEDLKTGGSESTARTLARFLSNTSFQGRTGAVWVAGSSQVHVSRHFKVWSLRRDPLGAPAWATVGSWQDGQLDFQPGAAALRVPSPSGTQARPKLRVVTLVEHPFVFTRESDEDGQCPAGQLCLDPGTNDSARLDALFTALENGSVPRTLRRCCYGYCIDLLERLAEDLAFDFELYIVGDGKYGALRDGRWTGLVGDLLAGRAHMAVTSFSINSARSQVVDFTSPFFSTSLGIMVRTRDTASPIGAFMWPLHWSMWVGVFAALHLTALFLTLYEWRSPYGLTPRGRNRGTVFSYSSALNLCYAILFGRTVSSKTPKCPTGRFLMNLWAIFCLLVLSSYTANLAAVMVGDKTFEELSGIHDPKLHHPSQGFRFGTVWESSAEAYIKASFPEMHAHMRRHSAPTTPHGVAMLTSDPPKLNAFIMDKSLLDYEVSIDADCKLLTVGKPFAIEGYGIGLPQNSPLTSNLSEFISRYKSSGFIDLLHDKWYKMVPCGKRVFAVTETLQMGVYHLSGLFVLLCLGLGSALLTSLGEHVFYRLVLPRIRRGNKLQYWLHTSQKIHRALNTGPPEGQQERAEQECSGPKEEQPAADGAGRWRRVRRAVVERERRVRFLLEPGEAGGDHPWLCSNGPGVQAELRELELRIEAARERLRSALLRRGELRAQLGDGTRLRPLRLLHAAPAES
Turning to B1, the glutamate-induced whole-cell current result in experiment [1] (NR3B coexpressed with NR1 and NR2A in HEK293 cells, compared with NR1 and NR2A alone) is recorded as “markedly depressed”. The “formation of electrophysiologically functional channels” value in experiment [1] (NR3B coexpressed with NR1 only (n=6)), in experiment [1] (NR3B coexpressed with NR2A only (n=5)) and in experiment [1] (expression of NR3B alone in HEK293 cells (n=6)) was “did not result in electrophysiologically functional channels” throughout. Also, the “current amplitude with increasing amount of NR3B plasmid” value in experiment [1] (NR3B plasmid 0, 1 and 3 μg versus other subunits (each 1 μg), +60 mV, Mg2+-free solution) was “concomitant decrease in current amplitude”. Also, the “sensitivity of the remaining current to Mg2+ block” value in experiment [1] (NR3B with NR1 and NR2A, presence or absence of 1 mM Mg2+) is recorded as “not affected”. The “AMPA receptor mediated current” value in experiment [2] is on record as “unchanged”. For the same molecule, in experiment [3], the “expression levels of NR1 and NR2A (GFP fluorescence)” value is recorded as “did not show any significant difference”.
